{
  "source": "patent US11162953B2",
  "about": "“Protein binding domains stabilizing functional conformational states of GPCRS and uses thereof” (priority 2010, dated 2021)",
  "molecules": {"B1": {"name": "NB72: β2AR-specific nanobody, SEQ ID NO:24; the tested NB72 is assumed to be this one (protein, listed as Lama glama)", "VHH": "QVQLQESGGGLVQPGGSLRLSCAASGFTFSGYAMNWVRQAPGKGPEWVSAINSGGGSTSYADSVKGRFTISRDNAKNTVYLQMNSLKPEDTAVYYCHARDIYSDFLGQYEYDYWGQGTQVTVSS"}, "B2": {"name": "NB67: β2AR-specific nanobody, SEQ ID NO:20 (protein, listed as Lama glama)", "VHH": "QVQLQESGGGLVQAGGSLRLSCAASGTISSFIAMGWYRQSPGKQRELVAGITSGGETNYEDSVKGRFTISRDNAKNTLYLQMNTLKPEDTAVYYCNAQVFADIFNLINYWGQGTQVTVSS"}, "B3": {"name": "NB69: β2AR-specific nanobody, SEQ ID NO:26 (protein, listed as Lama glama)", "VHH": "QVQLQESGGGLVQPGGSLRLSCAASGSIFSINAMGWYRQAPGKQRDLVASITSGGSTNYADSVKGRFTISRDNAKNTVYLQMNSLKPEDTAVYYCNVQGTGPSSWLFNEYDYWGQGTQVTVSS"}, "B4": {"name": "NB65: β2AR-specific nanobody, SEQ ID NO:5 (protein, listed as Lama glama)", "VHH": "QVQLQESGGGLVQAGGSLRLSCAASGSIFSINTMGWYRQAPGKQRELVAAIHSGGSTNYADSVRGRFTISRDNAKNTVYLQMNSLKPEDTAVYYCNVKDYGAVLYEYDYWGQGTQVTVSS"}, "B5": {"name": "NB84: β2AR-specific nanobody, SEQ ID NO:29; the tested NB84 is assumed to be this one (protein, listed as Lama glama)", "VHH": "QVQLQESGGGLVQAGGSLRLSCAASGSIFSINAMGWYRQAPGKQRELVAAITSGGSTTYADSVKGRFTVSRDNAKNTVYLQMIRLKPEDTAVYYCHVRDIYSDFLGQYEYDYWGQGTQVTVSS"}, "B6": {"name": "NB71: β2AR-specific nanobody, SEQ ID NO:25 (protein, listed as Lama glama)", "VHH": "QVQLQESGGGLVQPGGSLRLSCAASGFAFSSYELRWYRQAPGKQHELVAGITTGGNTYYADSVKGRFTISRDNAKNTVYLQMSNLRPEDTAVYACNANWDLLSDYWGQGTQVTVSS"}},
  "key": {"β2AR [1]": {"biological_target": "T1, β2AR (Homo sapiens, UniProt P07550)", "type": "binding"}, "β2AR [2]": {"biological_target": "T1, β2AR", "conditions": "agonist competition binding, Sf9 membranes", "text": "The IC50 values used for calculations of Ki values were obtained from means of pIC50 values determined by nonlinear regression analysis using Prism (GraphPad Software, San Diego, Calif.) and the s.e. interval from pIC50±s.e."}, "β2AR [3]": {"biological_target": "T1, β2AR", "test": "Monobromobimane fluorescence of purified mBBr-labeled β2AR", "type": "biochemical", "set-up": "made in house", "conditions": "1 μM nanobody, β2AR bound to full agonist isoproterenol", "description": "To investigate the effect of nanobodies on movement of the cytoplasmic domain of TM6 we labeled purified β2AR at C265 with monobromobimane (mBB-β2AR). […] In mBB-β2AR, the addition of agonist together with G protein results in larger fluorescent changes than either agonist or G protein alone. This is compatible with the cooperative interactions observed in agonist competition binding assays (Yao et al. 2009).\nPurified β2AR was reacted with 1:1 equivalent of monobromobimane (mBBr, Invitrogen) in 100 mM NaCl, 20 mM HEPES, pH 7.5, 0.1% dodecyl maltoside and incubated overnight on ice in the dark. The fluorophore-labeled receptor was purified right before use by gel filtration on a desalting column equilibrated with the same buffer. […] All experiments were performed at 25° C. […] To determine the effect of nanobodies and ligands, three individual labeled protein samples were incubated with 1 μM nanobody or 10 μM Isoproterenol or both. Emission spectra of the samples were taken after 1 hour incubation."}, "β2AR [4]": {"tested_on": "β2AR", "test": "Size exclusion chromatography of nanobody with purified agonist- or inverse agonist-bound β2AR", "type": "binding, human", "conditions": "20 μM β2AR bound to agonist or inverse agonist, 40 μM nanobody", "protocol": "The mixture was then analyzed by Size Exclusion Chromatography (SEC), which separates protein on the basis of size. Seven of the nanobodies bound to purified β2AR and migrated as a complex on SEC only in the presence of agonist and not an inverse agonist (an example is shown in FIG. 1, Panel a, FIGS. 3A, 3B, and FIG. 4).\nAgonist selective nanobodies were identified by size exclusion chromatography following incubation of 20 μM agonist or inverse agonist-(carazolol-) bound β2AR-365N for one hour at RT in the absence or presence of 40 μM nanobody."}, "[5]": {"conditions": "ratio of IC50 with irrelevant Nb to IC50 with 500 nM Nb80, 3H-DHA radioligand"}},
  "note": "“Also recorded” adds a separate entry of the source. Where a name gives a salt, the structure may show the parent alone. Read-outs that look alike come from different tables or passages of the source.",
  "data": [
    {"molecule": "CC(CCc1ccc(O)cc1)NCCc1ccc(O)c(O)c1", "note": "(stereo not shown) [dobutamine, dobutamine hydrochloride]", "values": [
      {"measurement": "Potency shift", "setting": "β2AR [1]; [5]", "value": 2.3}
    ]},
    {"molecule": "metaproterenol hemisulfate salt", "values": [
      {"measurement": "Potency shift", "setting": "β2AR [1]", "value": 2.9}
    ]},
    {"molecule": "CC(NCCc1ccc(O)cc1)C(O)c1ccc(O)cc1", "note": "(stereo not shown) [ritodrine, ritodrine hydrochloride]", "values": [
      {"measurement": "Potency shift", "setting": "β2AR [1]; [5]", "value": 2.7}
    ]},
    {"molecule": "CC(Cc1ccc(O)cc1)NCC(O)c1cc(O)cc(O)c1", "note": "(stereo not shown) [fenoterol, fenoterol hydrobromide]", "values": [
      {"measurement": "Potency shift", "setting": "β2AR [1]; [5]", "value": 3.7}
    ]},
    {"molecule": "B1", "values": [
      {"measurement": "enhancement of the affinity of β2AR for the agonist isoproterenol in the presence of nanobody", "setting": "β2AR [2]", "value": "two- to thirty-fold"},
      {"measurement": "nanobody-induced change of mBBr fluorescence", "setting": "β2AR [3]; listed as 72", "value": "Comparable results; also recorded: stabilize a more active state of the β2AR"},
      {"measurement": "complex formation with β2AR on SEC", "setting": "β2AR [4]", "value": "elutes at an earlier volume"}
    ]},
    {"molecule": "B2", "values": [
      {"measurement": "enhancement of the affinity of β2AR for the agonist isoproterenol in the presence of nanobody", "setting": "β2AR [2]", "value": "two- to thirty-fold"},
      {"measurement": "nanobody-induced change of mBBr fluorescence", "setting": "β2AR [3]; listed as 67", "value": "Comparable results; also recorded: stabilize a more active state of the β2AR"},
      {"measurement": "complex formation with β2AR on SEC", "setting": "β2AR [4]", "value": "elutes at an earlier volume"}
    ]},
    {"molecule": "B3", "values": [
      {"measurement": "enhancement of the affinity of β2AR for the agonist isoproterenol in the presence of nanobody", "setting": "β2AR [2]", "value": "two- to thirty-fold"},
      {"measurement": "nanobody-induced change of mBBr fluorescence", "setting": "β2AR [3]; listed as 69", "value": "Comparable results; also recorded: stabilize a more active state of the β2AR"},
      {"measurement": "complex formation with β2AR on SEC", "setting": "β2AR [4]", "value": "elutes at an earlier volume"}
    ]},
    {"molecule": "B4", "values": [
      {"measurement": "enhancement of the affinity of β2AR for the agonist isoproterenol in the presence of nanobody", "setting": "β2AR [2]", "value": "two- to thirty-fold"},
      {"measurement": "nanobody-induced change of mBBr fluorescence", "setting": "β2AR [3]; listed as 65", "value": "Comparable results; also recorded: stabilize a more active state of the β2AR"},
      {"measurement": "complex formation with β2AR on SEC", "setting": "β2AR [4]", "value": "elutes at an earlier volume"}
    ]},
    {"molecule": "B5", "values": [
      {"measurement": "enhancement of the affinity of β2AR for the agonist isoproterenol in the presence of nanobody", "setting": "β2AR [2]", "value": "two- to thirty-fold"},
      {"measurement": "nanobody-induced change of mBBr fluorescence", "setting": "β2AR [3]; listed as 84", "value": "Comparable results; also recorded: stabilize a more active state of the β2AR"},
      {"measurement": "complex formation with β2AR on SEC", "setting": "β2AR [4]", "value": "elutes at an earlier volume"}
    ]},
    {"molecule": "B6", "values": [
      {"measurement": "enhancement of the affinity of β2AR for the agonist isoproterenol in the presence of nanobody", "setting": "β2AR [2]", "value": "two- to thirty-fold"},
      {"measurement": "nanobody-induced change of mBBr fluorescence", "setting": "β2AR [3]; listed as 71", "value": "Comparable results; also recorded: stabilize a more active state of the β2AR"},
      {"measurement": "complex formation with β2AR on SEC", "setting": "β2AR [4]", "value": "elutes at an earlier volume"}
    ]}
  ]
}
